One test addresses CD161, on cells (UniProt Q12918). The test is described as follows: cell-based or functional assay.
The target of test [1] is lectin-like transcript 1 (LLT1), recombinantly expressed on cells (human) (UniProt Q9UHP7). The test can be described thus: cell-based or functional assay.
The target of test [2] is LLT1-Fc fusion protein (human) (UniProt Q9UHP7). The test is described as follows: ELISA, coated LLT1-Fc, anti-mIg-HRP detection. Background: ELISA stands for enzyme-linked immunosorbent assay.
The target of test [3] is CLEC2A-Fc protein (UniProt Q6UVW9). The test is described as follows: ELISA, coated CLEC2A-Fc, anti-mIg-HRP detection.
For test [4], the target named is CLEC2D iso2-Fc. The test is described as follows: ELISA, coated CLEC2D iso2-Fc, anti-mIg-HRP detection.
Test [5] deals with CLEC2D iso4-Fc. The test can be described thus: ELISA, coated CLEC2D iso4-Fc, anti-mIg-HRP detection.
Test [6] deals with LLT1-Fc fusion protein (human) (UniProt Q9UHP7). The test can be described thus: ELISA, coated LLT1-Fc, direct detection of the Fc portion.
Test [7] deals with CLEC2A-Fc protein (UniProt Q6UVW9). The test can be described thus: ELISA, coated CLEC2A-Fc, direct detection of the Fc portion.
For test [8], the target named is CLEC2D iso2-Fc. The test can be described thus: ELISA, coated CLEC2D iso2-Fc, direct detection of the Fc portion.
In test [9] the target is CLEC2D iso4-Fc. The test can be described thus: ELISA, coated CLEC2D iso4-Fc, direct detection of the Fc portion.
The target of test [10] is CD20 on C1R and C1R-LLT1 cells (UniProt P11836). The test is described as follows: cell-based or functional assay.

Experimental findings from patent US20130164299A1 are described below.

lectin-like transcript 1 (LLT1), recombinantly expressed on cells (human), sequence (Q9UHP7 whole entry, the tested form may be a part): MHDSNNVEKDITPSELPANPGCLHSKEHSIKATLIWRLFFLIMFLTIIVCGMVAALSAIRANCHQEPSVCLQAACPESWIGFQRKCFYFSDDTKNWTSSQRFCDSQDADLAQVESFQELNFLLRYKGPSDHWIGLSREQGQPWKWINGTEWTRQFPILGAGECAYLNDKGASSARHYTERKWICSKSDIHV
CLEC2A-Fc protein, sequence (Q6UVW9 49-174): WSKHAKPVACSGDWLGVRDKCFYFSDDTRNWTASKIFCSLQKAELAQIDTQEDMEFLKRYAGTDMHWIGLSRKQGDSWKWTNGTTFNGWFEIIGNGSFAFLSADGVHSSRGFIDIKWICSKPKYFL
LLT1-Fc fusion protein (human), sequence (Q9UHP7 60-191 limits assumed): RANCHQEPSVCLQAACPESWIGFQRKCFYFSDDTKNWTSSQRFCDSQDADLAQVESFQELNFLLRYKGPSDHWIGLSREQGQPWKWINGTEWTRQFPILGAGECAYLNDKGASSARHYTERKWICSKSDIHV
CD20 on C1R and C1R-LLT1 cells, sequence (P11836 whole entry): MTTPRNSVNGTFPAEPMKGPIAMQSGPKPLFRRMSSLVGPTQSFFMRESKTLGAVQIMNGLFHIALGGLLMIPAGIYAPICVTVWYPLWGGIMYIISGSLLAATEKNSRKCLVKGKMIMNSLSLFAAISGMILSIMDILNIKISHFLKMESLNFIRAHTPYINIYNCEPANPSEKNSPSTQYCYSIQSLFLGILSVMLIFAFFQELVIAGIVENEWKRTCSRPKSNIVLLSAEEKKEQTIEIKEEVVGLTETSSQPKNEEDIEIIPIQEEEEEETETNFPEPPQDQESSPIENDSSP

For the substance anti-CD161 mAb DX12 (antibody), in the test with CD161, on cells, the % CD107a+ NK cells (NK cells + C1R-LLT1) was 8.1% and the % IFN-γ+ NK cells (NK cells + C1R-LLT1) was 5.4%.

As for MAB3480 (antibody), in [1], the % CD107a+ NK cells (NK cells + C1R-LLT1) is 4.7%. Besides, the % IFN-γ+ NK cells (NK cells + C1R-LLT1) in [1] stood at 3%. The OD in [2] came out at 1.21 OD; in the test with CLEC2A-Fc protein [3] it was 0.104 OD; in the test with CLEC2D iso2-Fc [4] it was 0.117 OD; with CLEC2D iso4-Fc [5], 0.112 OD.

On to HRP-conjugated anti-human Ig antibody, for which the OD was 1.08 OD in test [6], 1.15 OD with CLEC2A-Fc protein [7], 1.01 OD with CLEC2D iso2-Fc [8] and 1.04 OD with CLEC2D iso4-Fc [9].

With AF3480 (antibody), in test [1], the % CD107a+ NK cells (NK cells + C1R-LLT1) was 5.3% and the % IFN-γ+ NK cells (NK cells + C1R-LLT1) stood at 3.3%.

For anti-CD20 (rituximab) (antibody), the ADCC: specific lysis of C1R and C1R-LLT1 cells by NK cells (chromium release); antibody concentration giving lysis in test [10] was more than 0.16 mg/mL.

anti-CD161 mAb HP3G10 (antibody): in the test with CD161, on cells, the % CD107a+ NK cells (NK cells + C1R-LLT1) was determined as 9.5%; the % CD107a+ NK cells, Raji target cells (no mAb 10.3) was determined as 13.1%; the % CD107a+ NK cells, Ramos target cells (no mAb 8.1) was determined as 10.9%; the % CD107a+ NK cells, SUDHL4 target cells (no mAb 11.6) came to 17.5%. For the same substance, the % IFN-γ+ NK cells (NK cells + C1R-LLT1) with CD161, on cells turned out to be 5.3%.

Regarding anti-CD161 mAb 191B8 (antibody), in the test with CD161, on cells, the % CD107a+ NK cells (NK cells + C1R-LLT1) worked out at 13.2% and the % IFN-γ+ NK cells (NK cells + C1R-LLT1) worked out at 7.4%.
